{"source": "patent US5622933A", "about": "“Multiple branch peptide constructions for use against HIV” (priority 1993, dated 1997)", "key": {"HIV-1 (LAI)": {"system": "HIV-1 (LAI)", "assay": "Fusion between chronically infected CEM cells and MT-2 cells", "type": "cell-based", "conditions": "separate tests"}, "HIV-2 (ROD)": {"system": "HIV-2 (ROD)", "assay": "Fusion between chronically infected CEM cells and MT-2 cells", "type": "cell-based", "conditions": "separate tests"}, "HIV-1 (89.6)": {"system": "HIV-1 (89.6)", "assay": "Infection of and syncytia formation in human primary macrophages", "type": "cell-based", "conditions": "5×10^-5 M", "description": "MBPCs were also evaluated for their ability to block the infection of human primary macrophages by a highly cytopathic macrophage-tropic isolate, HIV-1 (89.6). Mononuclear cells were isolated from leukophoresis units enriched for monocytes by Ficoll-Hypaque density separation. Macrophages were purified by adherence to plastic in RPMI 1640 supplemented with 10% fetal calf serum and 5% human AB serum. […] 5×10^5 cells were treated for 45 minutes with the indicated MBPC at concentrations of 5×10^-5 M and subsequently exposed to 10,000 TCID50 of the macrophage-tropic isolate HIV (89.6). […] After thorough washing, the cells were fed again with medium and analyzed for HIV-1 p24^gag production and syncytia formation 4 days post-infection."}, "GalCer receptor": {"system": "GalCer receptor", "assay": "Binding of gp120 to GalCer (HPTLC binding assay)", "description": "In another experiment with the same MBPCs, the effect of MBPCs on the binding of gp120 to GalCer was analyzed using a high performance thin layer chromatography (HPTLC) binding assay. MBPCs (10^-4 M) were preincubated with GalCer for 1 hour at room temperature. After thorough washing, the HPTLC plates were incubated with HIV-1 recombinant gp120 (2.5 ug/ml) followed by rabbit anti-gp120 and ^125 I-goat anti-rabbit IgG. The plates were washed in PBS and exposed to Amersham Hyperfilm MP for 8 hours. As shown in FIG. 5B treatment of HT-29 cells with active MBPCs protected the cells from infection by HIV-1 (NDK isolate). This antiviral effect was correlated with its ability to block the binding of gp120 to GalCer."}, "C57/BL6 black mice": {"system": "C57/BL6 black mice", "assay": "Immunogenicity in mice (serum ELISA for anti-MBPC3 antibody)", "type": "in vivo, mouse", "description": "The injection route was intraperitoneal. The blood samples were collected by sub-orbital eye punction. The blood samples were left for 1 hour at 37° C., then overnight at 4° C., and the supernatants (serum samples) thus obtained were separated from the pellets. Sera were tested by ELISA, looking for specific anti-MBPC3 antibody.\n[…] After saturation with 400 μL of casein (5 g/100 ml), different serum dilutions were added for 2 hours at 37° C. The controls were sera from non-immunized rabbits and mice. After rinsing (5×), 50 μl of 1:5000 of peroxidase-labeled swine anti-rabbit IgG or anti-mouse IgG (Dakopatts, Copenhagen, Denmark) were added for 1 hour at 37° C. After further rinsing (5×), 100 μl of ortho-phenylenediamine were added for 30 min in the dark at room temperature. The reaction was stopped by adding 50 μl of 4N sulfuric acid, and optical density (OD) ratios were determined at 492/620 nm."}}, "note": "Where “and” joins values, the source holds several entries; their conditions need not be identical. Equal entries are not always repeated.", "data": [{"substance": "(GPGRAF)8 -(K)4 -(K)2 -K-βA-OH [MBPC.3]", "values": [{"measurement": "block of fusion", "setting": "HIV-1 (LAI)", "result": "able to block the fusion"}, {"measurement": "block of fusion", "setting": "HIV-2 (ROD)", "result": "able to block the fusion"}, {"measurement": "inhibition of macrophage infection, in words", "setting": "HIV-1 (89.6); 10,000 TCID50", "result": "able to inhibit infection"}, {"measurement": "giant cells (syncytia) in macrophage cultures", "setting": "HIV-1 (89.6); pretreated, 4 days post-infection", "result": "very few giant cells"}, {"measurement": "binding to / activity on the Galactosyl Ceramide receptor", "setting": "GalCer receptor", "result": "bind to the second receptor"}, {"measurement": "titers of anti-GPGRAF antibodies", "setting": "C57/BL6 black mice; mice injected", "result": "did not produce significant titers"}, {"measurement": "optical density (OD) ratio 492/620 nm (×10^3)", "setting": "C57/BL6 black mice; plate 1, mouse serum 10^-2, coat 0.5 μg MBPC.3/ml", "result": "382 and 381"}, {"measurement": "optical density (OD) ratio 492/620 nm (×10^3)", "setting": "C57/BL6 black mice; plate 1, mouse serum 10^-2, coat 1 μg MBPC.3/ml", "result": "444 and 419"}, {"measurement": "optical density (OD) ratio 492/620 nm (×10^3)", "setting": "C57/BL6 black mice; plate 1, mouse serum 10^-2, coat 5 μg MBPC.3/ml", "result": "1045 and 933"}, {"measurement": "optical density (OD) ratio 492/620 nm (×10^3)", "setting": "C57/BL6 black mice; plate 1, mouse serum 10^-2, coat 10 μg MBPC.3/ml", "result": "1162 and 1199"}, {"measurement": "optical density (OD) ratio 492/620 nm (×10^3)", "setting": "C57/BL6 black mice; plate 1, mouse serum 10^-3, coat 0.5 μg MBPC.3/ml", "result": "128 and 135"}, {"measurement": "optical density (OD) ratio 492/620 nm (×10^3)", "setting": "C57/BL6 black mice; plate 1, mouse serum 10^-3, coat 1 μg MBPC.3/ml", "result": "126 and 111"}, {"measurement": "optical density (OD) ratio 492/620 nm (×10^3)", "setting": "C57/BL6 black mice; plate 1, mouse serum 10^-3, coat 5 μg MBPC.3/ml", "result": "285 and 236"}, {"measurement": "optical density (OD) ratio 492/620 nm (×10^3)", "setting": "C57/BL6 black mice; plate 1, mouse serum 10^-3, coat 10 μg MBPC.3/ml", "result": "339 and 291"}, {"measurement": "optical density (OD) ratio 492/620 nm (×10^3)", "setting": "C57/BL6 black mice; plate 1, mouse serum 10^-4, coat 0.5 μg MBPC.3/ml", "result": "56 and 38"}, {"measurement": "optical density (OD) ratio 492/620 nm (×10^3)", "setting": "C57/BL6 black mice; plate 1, mouse serum 10^-4, coat 1 μg MBPC.3/ml", "result": "50 and 51"}, {"measurement": "optical density (OD) ratio 492/620 nm (×10^3)", "setting": "C57/BL6 black mice; plate 1, mouse serum 10^-4, coat 5 μg MBPC.3/ml", "result": "121 and 132"}, {"measurement": "optical density (OD) ratio 492/620 nm (×10^3)", "setting": "C57/BL6 black mice; plate 1, mouse serum 10^-4, coat 10 μg MBPC.3/ml", "result": "172 and 138"}, {"measurement": "optical density (OD) ratio 492/620 nm (×10^3)", "setting": "C57/BL6 black mice; plate 2, mouse serum 10^-2, coat 1 μg MBPC.3/ml", "result": "381 and 429"}, {"measurement": "optical density (OD) ratio 492/620 nm (×10^3)", "setting": "C57/BL6 black mice; plate 2, mouse serum 10^-2, coat 5 μg MBPC.3/ml", "result": "1514 and 1344"}, {"measurement": "optical density (OD) ratio 492/620 nm (×10^3)", "setting": "C57/BL6 black mice; plate 2, mouse serum 10^-2, coat 10 μg MBPC.3/ml", "result": "1540 and 1457"}, {"measurement": "optical density (OD) ratio 492/620 nm (×10^3)", "setting": "C57/BL6 black mice; plate 2, mouse serum 10^-3, coat 0.5 μg MBPC.3/ml", "result": "47 and 82"}, {"measurement": "optical density (OD) ratio 492/620 nm (×10^3)", "setting": "C57/BL6 black mice; plate 2, mouse serum 10^-3, coat 1 μg MBPC.3/ml", "result": "54 and 65"}, {"measurement": "optical density (OD) ratio 492/620 nm (×10^3)", "setting": "C57/BL6 black mice; plate 2, mouse serum 10^-3, coat 5 μg MBPC.3/ml", "result": "263 and 273"}, {"measurement": "optical density (OD) ratio 492/620 nm (×10^3)", "setting": "C57/BL6 black mice; plate 2, mouse serum 10^-3, coat 10 μg MBPC.3/ml", "result": "334 and 291"}, {"measurement": "optical density (OD) ratio 492/620 nm (×10^3)", "setting": "C57/BL6 black mice; plate 2, mouse serum 10^-4, coat 1 μg MBPC.3/ml", "result": "15 and 17"}, {"measurement": "optical density (OD) ratio 492/620 nm (×10^3)", "setting": "C57/BL6 black mice; plate 2, mouse serum 10^-4, coat 5 μg MBPC.3/ml", "result": "88 and 97"}, {"measurement": "optical density (OD) ratio 492/620 nm (×10^3)", "setting": "C57/BL6 black mice; plate 2, mouse serum 10^-4, coat 10 μg MBPC.3/ml", "result": "132 and 188"}, {"measurement": "optical density (OD) ratio 492/620 nm (×10^3)", "setting": "C57/BL6 black mice; plate 3, mouse serum 10^-2, coat 0.5 μg MBPC.3/ml", "result": "204 and 198"}, {"measurement": "optical density (OD) ratio 492/620 nm (×10^3)", "setting": "C57/BL6 black mice; plate 3, mouse serum 10^-2, coat 1 μg MBPC.3/ml", "result": "241 and 200"}, {"measurement": "optical density (OD) ratio 492/620 nm (×10^3)", "setting": "C57/BL6 black mice; plate 3, mouse serum 10^-2, coat 5 μg MBPC.3/ml", "result": "636 and 630"}, {"measurement": "optical density (OD) ratio 492/620 nm (×10^3)", "setting": "C57/BL6 black mice; plate 3, mouse serum 10^-2, coat 10 μg MBPC.3/ml", "result": "639 and 664"}, {"measurement": "optical density (OD) ratio 492/620 nm (×10^3)", "setting": "C57/BL6 black mice; plate 3, mouse serum 10^-3, coat 0.5 μg MBPC.3/ml", "result": "48 and 49"}, {"measurement": "optical density (OD) ratio 492/620 nm (×10^3)", "setting": "C57/BL6 black mice; plate 3, mouse serum 10^-3, coat 1 μg MBPC.3/ml", "result": "50 and 53"}, {"measurement": "optical density (OD) ratio 492/620 nm (×10^3)", "setting": "C57/BL6 black mice; plate 3, mouse serum 10^-3, coat 5 μg MBPC.3/ml", "result": "159 and 163"}, {"measurement": "optical density (OD) ratio 492/620 nm (×10^3)", "setting": "C57/BL6 black mice; plate 3, mouse serum 10^-3, coat 10 μg MBPC.3/ml", "result": "172 and 168"}, {"measurement": "optical density (OD) ratio 492/620 nm (×10^3)", "setting": "C57/BL6 black mice; plate 3, mouse serum 10^-4, coat 0.5 μg MBPC.3/ml", "result": "22 and 21"}, {"measurement": "optical density (OD) ratio 492/620 nm (×10^3)", "setting": "C57/BL6 black mice; plate 3, mouse serum 10^-4, coat 1 μg MBPC.3/ml", "result": 22}, {"measurement": "optical density (OD) ratio 492/620 nm (×10^3)", "setting": "C57/BL6 black mice; plate 3, mouse serum 10^-4, coat 5 μg MBPC.3/ml", "result": "83 and 84"}, {"measurement": "optical density (OD) ratio 492/620 nm (×10^3)", "setting": "C57/BL6 black mice; plate 3, mouse serum 10^-4, coat 10 μg MBPC.3/ml", "result": "85 and 84"}, {"measurement": "optical density (OD) ratio 492/620 nm (×10^3)", "setting": "C57/BL6 black mice; plate 4, mouse serum 10^-2, coat 0.5 μg MBPC.3/ml", "result": "495 and 468"}, {"measurement": "optical density (OD) ratio 492/620 nm (×10^3)", "setting": "C57/BL6 black mice; plate 4, mouse serum 10^-2, coat 1 μg MBPC.3/ml", "result": "553 and 439"}, {"measurement": "optical density (OD) ratio 492/620 nm (×10^3)", "setting": "C57/BL6 black mice; plate 4, mouse serum 10^-2, coat 5 μg MBPC.3/ml", "result": "1233 and 1336"}, {"measurement": "optical density (OD) ratio 492/620 nm (×10^3)", "setting": "C57/BL6 black mice; plate 4, mouse serum 10^-2, coat 10 μg MBPC.3/ml", "result": "1454 and 1340"}, {"measurement": "optical density (OD) ratio 492/620 nm (×10^3)", "setting": "C57/BL6 black mice; plate 4, mouse serum 10^-3, coat 0.5 μg MBPC.3/ml", "result": "90 and 95"}, {"measurement": "optical density (OD) ratio 492/620 nm (×10^3)", "setting": "C57/BL6 black mice; plate 4, mouse serum 10^-3, coat 1 μg MBPC.3/ml", "result": "83 and 88"}, {"measurement": "optical density (OD) ratio 492/620 nm (×10^3)", "setting": "C57/BL6 black mice; plate 4, mouse serum 10^-3, coat 5 μg MBPC.3/ml", "result": "299 and 297"}]}]}
